Changes are numbered by the printed parent chain. In names and notes the source's numbering stands. Several values for one entry are separate records, joined by “and”; a condition that tells them apart may be missing. Equal entries are not always repeated.

Experiment [1] concerns the target T1, Recombinant human CTLA4-hisFc (human, UniProt P16410 36-161, limits assumed).
T1 construct: Coated on the ELISA plate; the whole UniProt entry is named; also called recombinant human CLTA4-hisFc; its antigen; not shown: his tag and Fc
T1 sequence (looked up): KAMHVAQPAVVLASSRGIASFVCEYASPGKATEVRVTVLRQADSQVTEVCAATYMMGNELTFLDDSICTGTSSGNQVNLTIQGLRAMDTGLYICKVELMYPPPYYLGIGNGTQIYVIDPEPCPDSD
The experiment can be described thus: ELISA, coated CTLA4-hisFc. The protocol:
(§1) Recombinant human CTLA4-hisFc was diluted to 1 μg/mL in PBS and coated on a Maxisorp plate at 4° C. overnight. Plates were blocked with PBS supplemented with 3% non-fat milk at 37° C. for 1 hour. After washing, 100 µL of 3-fold serial dilutions of antibodies were added to each well. After incubation at 37° C. for 1 hour, plates were washed four times, and 100 μL HRP conjugated anti-human IgG (Fab specific) (1:6000 dilution) was added to each well. Plates were incubated at 37° C. for 1 hour, washed four times, and then 50 μL TMB substrate solution was added to each well, and the plate was incubated at room temperature. Absorbance at 450 nm was measured after the reactions were stopped with 50 μL H2SO4 per well. The EC50 was evaluated by fitting the ELISA data using the sigmoidal (four-parameter logistic equation) model of GraphPad Prism 6 software. Experiments for some activatable antibodies were performed twice or more, leading to two or more calculated masking efficiencies being obtained for each of these activatable antibodies.

Experiment [2] concerns the target T2, human CTLA4 expressed on cells (human, UniProt P16410 36-223).
T2 sequence (looked up): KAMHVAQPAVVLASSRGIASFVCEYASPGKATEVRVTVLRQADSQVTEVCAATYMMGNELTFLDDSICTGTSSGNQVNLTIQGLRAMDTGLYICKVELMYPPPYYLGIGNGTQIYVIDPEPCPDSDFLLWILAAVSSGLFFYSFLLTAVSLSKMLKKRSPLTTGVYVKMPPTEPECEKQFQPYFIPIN
The experiment can be described thus: cell-based or functional assay.

The target of experiment [3] is T3, biotinylated CTLA-4 protein (UniProt P16410 36-161, limits assumed, biotinylated (sites not given)).
T3 construct: also called receptor CTLA-4
T3 sequence (looked up): T1 sequence (looked up)
Briefly: competition ELISA, biotinylated CTLA-4 on coated CD86 (competitor CD86). An excerpt:
(§2) Relative CTLA-4 and its ligand binding was monitored by reading the absorbance at 450 nm wavelength in the micro-plate reader.

The target of experiment [4] is T1, Recombinant human CTLA4-hisFc. The experiment can be described thus: ELISA, coated CTLA4-hisFc, after MMP-9 cleavage. The protocol:
as §1, with “Plates” for “Recombinant human CTLA4-hisFc was diluted to 1 μg/mL in PBS and coated on a Maxisorp plate at 4° C. overnight. Plates”
The purified activatable antibodies were treated with the proteases which recognize the cleavage sequences, and were then tested to determine whether removal of the masking peptide restored their activity. […] The reactions were carried out at 37° C. for 24 hours. […] The masking efficiency was then measured by ELISA as described above.

Experiment [5] has as its target T3, biotinylated CTLA-4 protein. The experiment can be described thus: competition ELISA, biotinylated CTLA-4 on coated CD80 (competitor CD80).
From the text: as §2

Experiment [6] concerns the target recombinant mouse CTLA-4 protein (mouse, UniProt P09793 36-161, limits assumed). The experiment can be described thus: SPR (Biacore), antibody captured by anti-human IgG Fc, CTLA-4 in flow. The protocol: (§3) Serial dilutions of recombinant CTLA-4 proteins of different species origins were sequentially loaded and flowed through the chip to measure the kinetics of CTLA-4 antigen association (kₐ), followed by a buffer flow-through phase for dissociation kinetics (kd) measurement. The binding affinity (KD) is then calculated with […].

For experiment [7], the target named is T4, recombinant rat CTLA-4 protein (rat, UniProt Q62859 36-161).
T4 sequence: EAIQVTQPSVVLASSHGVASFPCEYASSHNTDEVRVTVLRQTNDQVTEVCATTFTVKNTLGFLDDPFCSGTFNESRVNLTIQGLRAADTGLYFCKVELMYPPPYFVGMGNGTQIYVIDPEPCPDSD
The experiment is described as above. As to the method: as §3

B1: TY24460 (antibody, human IgG1, kappa)
heavy: not shown
light: EVGSYSSCKAPYPYCKGSGGGPLGLAGGSDIQLTQSPSSLSASVGDRVTITCRASQSVRGRFLAWYQQKPGKAPKLLIYDASNRATGIPSRFSGSGSGTDFTLTISSLQPEDFATYYCQQSSSWPPTFGQGTKVEIKRTVAAPSVFIFPPSDEQLKSGTASVVCLLNNFYPREAKVQWKVDNALQSGNSQESVTEQDSKDSTYSLSSTLTLSKADYEKHKVYACEVTHQGLSSPVTKSFNRGEC
For B1, the EC50 in experiment [1] was 339 nM.

B2: TY24465 (antibody, human IgG1, kappa)
heavy: not shown
light: EVGSYTLCEPFATSVCRPGGGPLGLAGGSDIQLTQSPSSLSASVGDRVTITCRASQSVRGRFLAWYQQKPGKAPKLLIYDASNRATGIPSRFSGSGSGTDFTLTISSLQPEDFATYYCQQSSSWPPTFGQGTKVEIKRTVAAPSVFIFPPSDEQLKSGTASVVCLLNNFYPREAKVQWKVDNALQSGNSQESVTEQDSKDSTYSLSSTLTLSKADYEKHKVYACEVTHQGLSSPVTKSFNRGEC
Consider B2, for which, in experiment [1], the EC50 is 2.33 µM (2×) and 1.2 µM (2×).

B3: TY24459 (antibody, human IgG1, kappa)
heavy: not shown
light: B1 light with G20R
For the molecule B3, the EC50 in experiment [1] was 209 nM.

B4: TY24461 (antibody, human IgG1, kappa)
heavy: not shown
light: EVGSYSSCKAPYPYCKGGGGPLGLAGGSDIQLTQSPSSLSASVGDRVTITCRASQSVRGRFLAWYQQKPGKAPKLLIYDASNRATGIPSRFSGSGSGTDFTLTISSLQPEDFATYYCQQSSSWPPTFGQGTKVEIKRTVAAPSVFIFPPSDEQLKSGTASVVCLLNNFYPREAKVQWKVDNALQSGNSQESVTEQDSKDSTYSLSSTLTLSKADYEKHKVYACEVTHQGLSSPVTKSFNRGEC
Consider B4, for which the EC50 in experiment [1] is 310 nM.

B5: TY24851 (antibody, IgG1, V domains shown)
VH: EVQLVESGGGLVQPGGSLRLSCAASGYSISSGYHWSWIRQAPGKGLEWLARIDWDDDKYYSTSLKSRLTISRDNSKNTLYLQLNSLRAEDTAVYYCARSYVYFDYWGQGTLVTVSS
VL: ETLCEPFATSVCRPGGGGSGGSGGGSDIQLTQSPSSLSASVGDRVTITCRASQSVRGRFLAWYQQKPGKAPKLLIYDASNRATGIPSRFSGSGSGTDFTLTISSLQPEDFATYYCQQSSSWPPTFGQGTKVEIKR
notes: also called non-cleavable antibody TY24851
With B5, the half-maximal effective concentration (EC50) in experiment [1] came to 25.8 nM.

B6: TY24841 (antibody, V domains shown)
VH: B5 VH
VL: B5 VL
On to B6, for which the EC50 in experiment [1] is 34.9 nM.

B7: TY24149 (antibody, human IgG1, kappa)
heavy: not shown
light: EVGSYPPCVGFYPYCKTSGRSAGGGGTPLGLAGSGGSDIQLTQSPSSLSASVGDRVTITCRASQSVRGRFLAWYQQKPGKAPKLLIYDASNRATGIPSRFSGSGSGTDFTLTISSLQPEDFATYYCQQSSSWPPTFGQGTKVEIKRTVAAPSVFIFPPSDEQLKSGTASVVCLLNNFYPREAKVQWKVDNALQSGNSQESVTEQDSKDSTYSLSSTLTLSKADYEKHKVYACEVTHQGLSSPVTKSFNRGEC
B7: in experiment [1], the EC50 is 123 nM and 122 nM; the “Masking efficiency (EC50 / EC50 of TY21580)” value worked out at 356 fold.

B8: TY24155 (antibody, human IgG1, kappa)
heavy: not shown
light: B7 light with P6S, P7S, V9K, G10A, F11P, T17G
As for B8, the EC50 in experiment [1] was 438 nM (2×) and 210 nM (2×).

B9: TY24462 (antibody, human IgG1, kappa)
heavy: not shown
light: ESSCKAPYPYCKGSGGGPLGLAGGSDIQLTQSPSSLSASVGDRVTITCRASQSVRGRFLAWYQQKPGKAPKLLIYDASNRATGIPSRFSGSGSGTDFTLTISSLQPEDFATYYCQQSSSWPPTFGQGTKVEIKRTVAAPSVFIFPPSDEQLKSGTASVVCLLNNFYPREAKVQWKVDNALQSGNSQESVTEQDSKDSTYSLSSTLTLSKADYEKHKVYACEVTHQGLSSPVTKSFNRGEC
Consider B9, for which the EC50 in experiment [1] came to 314 nM.

B10: TY24463 (antibody, human IgG1, kappa)
heavy: not shown
light: EVGSYTLCEPFATSVCRPSGRGPLGLAGGSDIQLTQSPSSLSASVGDRVTITCRASQSVRGRFLAWYQQKPGKAPKLLIYDASNRATGIPSRFSGSGSGTDFTLTISSLQPEDFATYYCQQSSSWPPTFGQGTKVEIKRTVAAPSVFIFPPSDEQLKSGTASVVCLLNNFYPREAKVQWKVDNALQSGNSQESVTEQDSKDSTYSLSSTLTLSKADYEKHKVYACEVTHQGLSSPVTKSFNRGEC
As to B10, in experiment [1], the EC50 was found to be 996 nM.

B11: TY24464 (antibody, human IgG1, kappa)
heavy: not shown
light: B10 light with R21G
For B11, the 50% effective concentration (EC50) in experiment [1] was determined as 2140 nM.

B12: TY24040 (antibody, human IgG1, kappa)
heavy: not shown
light: DIQLTQSPSSLSASVGDRVTITCRASQSVRGRFLAWYQQKPGKAPKLLIYDASNRATGIPSRFSGSGSGTDFTLTISSLQPEDFATYYCQQSSSWPPTFGQGTKVEIKRTVAAPSVFIFPPSDEQLKSGTASVVCLLNNFYPREAKVQWKVDNALQSGNSQESVTEQDSKDSTYSLSSTLTLSKADYEKHKVYACEVTHQGLSSPVTKSFNRGEC
For the molecule B12, the “ADCP reporter activity (luciferase), EC50” value in experiment [2] was 2.04 nM.

B13: TY24652-MMP9 (antibody, IgG1)
heavy: not shown
light: B12 light
notes: TY24652 after 24 h with MMP-9; IgG1 Fc with S239D/I332E
Turning to B13, the IC50 in experiment [3] is 17.5 nM; in experiment [5], 280 nM. In addition, the EC50 in experiment [4] came out at 0.313 nM. In addition, the figures for the Kd in experiment [6] and in experiment [7] were 0.63 nM and 0.69 nM, respectively.

B14: TY24649-MMP9 (antibody, human IgG1)
heavy: not shown
light: B12 light
notes: TY24649 after 24 h with MMP-9; Wild-type human IgG1 Fc; also called TY24649 treated with recombinant human MMP-9
Take B14: the EC50 in experiment [4] is 0.286 nM.

B15: TY24466 (antibody, human IgG1, kappa)
heavy: not shown
light: ETLCEPFATSVCRPSGGGPLGLAGGSDIQLTQSPSSLSASVGDRVTITCRASQSVRGRFLAWYQQKPGKAPKLLIYDASNRATGIPSRFSGSGSGTDFTLTISSLQPEDFATYYCQQSSSWPPTFGQGTKVEIKRTVAAPSVFIFPPSDEQLKSGTASVVCLLNNFYPREAKVQWKVDNALQSGNSQESVTEQDSKDSTYSLSSTLTLSKADYEKHKVYACEVTHQGLSSPVTKSFNRGEC
On to B15, for which the EC50 in experiment [1] is 3.17 µM (2×) and 2.23 µM (2×).

B16: TY24148 (antibody, human IgG1, kappa)
heavy: not shown
light: EVGSYVLCAKFPFCITSGRSAGGGGTPLGLAGSGGSDIQLTQSPSSLSASVGDRVTITCRASQSVRGRFLAWYQQKPGKAPKLLIYDASNRATGIPSRFSGSGSGTDFTLTISSLQPEDFATYYCQQSSSWPPTFGQGTKVEIKRTVAAPSVFIFPPSDEQLKSGTASVVCLLNNFYPREAKVQWKVDNALQSGNSQESVTEQDSKDSTYSLSSTLTLSKADYEKHKVYACEVTHQGLSSPVTKSFNRGEC
Regarding B16, in experiment [1], the EC50 is 150 nM and the “Masking efficiency (EC50 / EC50 of TY21580)” value is 436 fold.
